Measurements taken from patent publication US20100184663A1.

Columns and labels:
[1] = target: HIV-1 gp41 (HXB2 strain) (HIV-1 HXB2) (UniProt P04578); assay: cell-based or functional assay
[2] = target: HIV-1 gp41 (JRFL strain) (HIV-1 JRFL); assay: cell-based or functional assay

Fuzeon (from UniProt P04578 638-673) (peptide)
IC50 (HXB2), pseudovirion entry [1]: 3.7 nM | IC50 (HXB2), single-cycle viral infectivity assay [1]: 3.7 nM | IC50 (JRFL), pseudovirion entry [2]: 5 nM
